# Reference: publication PMC8913300, “Two distinct classes of cochaperones compete for the EEVD motif in heat shock protein 70 to tune its chaperone activities” (The Journal of Biological Chemistry, 2022)
# Where “and” joins values, the source holds several entries; their conditions need not be identical. Equal entries are not always repeated. No end group written: not given here.
# B1: Hsp72 tracer FITC-Ahx-GSGPTIEEVD (peptide)
# peptide: GSGPTIEEVD-OH
# modifications: not fully specified (N-terminus); printed as FITC-Ahx-GSGPTIEEVD; also: methods name the dye 5-FAM, not FITC
# notes: last 10 residues of Hsp72/HSPA1A; also called fluorescent Hsp72 tracer; Hsp72 probe; source: synthetic peptide, bought: GenScript
# B2: Hsp72 C-terminal peptide truncated of P10 (9-mer) (peptide, UniProt P0DMV8 633-641, looked up)
# peptide: Ac-SGPTIEEVD-OH
# notes: source: synthetic peptide, bought: GenScript
# B3: Hsp72 C-terminal peptide truncated of P10 and P9 (8-mer) (peptide, UniProt P0DMV8 634-641, looked up)
# peptide: Ac-GPTIEEVD-OH
# notes: as for B2
# B4: Hsp72 C-terminal peptide truncated of P10 to P8 (7-mer PTIEEVD) (peptide)
# peptide: Ac-PTIEEVD-OH
# notes: last seven amino acids of Hsp72/HSPA1A; source: synthetic peptide, bought: GenScript
# B5: Hsp72 T636E tracer FITC-Ahx-GSGPEIEEVD (peptide)
# peptide: GSGPEIEEVD-OH
# modifications: not fully specified (N-terminus); printed as FITC-Ahx-GSGPEIEEVD; also: methods name the dye 5-FAM, not FITC
# notes: also called phosphomimetic T636E Hsp72 fluorescent tracer; source: synthetic peptide, bought: GenScript
# B6: C terminus of Hsc70 interacting protein (CHIP) (enzyme, human, UniProt Q9UNE7 1-303, looked up)
# chain: MKGKEEKEGGARLGAGGGSPEKSPSAQELKEQGNRLFVGRKYPEAAACYGRAITRNPLVAVYYTNRALCYLKMQQHEQALADCRRALELDGQSVKAHFFLGQCQLEMESYDEAIANLQRAYSLAKEQRLNFGDDIPSALRIAKKKRWNSIEERRIHQESELHSYLSRLIAAERERELEECQRNHEGDEDDSHVRAQQACIEAKHDKYMADMDELFSQVDEKRKKRDIPDYLCGKISFELMREPCITPSGITYDRKDIEEHLQRVGHFDPVTRSPLTQEQLIPNLAMKEVIDAFISENGWVEDY
# notes: recombinant human CHIP, E3 ubiquitin ligase with a TPR domain; source: E. coli BL21(DE3), purified (Ni-NTA, TEV cleavage, SEC); not shown: His6, N-terminal, cleaved
# B7: Hsp72 C-terminal 10-mer peptide, unlabeled, N-acetylated (peptide)
# peptide: Ac-GSGPTIEEVD-OH
# notes: last 10 residues of Hsp72/HSPA1A; also called WT Hsp72 peptide; source: synthetic peptide, bought: GenScript
# B8: Hsp72 10-mer peptide with P5 Ile replaced by Met (peptide, UniProt P0DMV8 632-641, looked up)
# peptide: Ac-GSGPTMEEVD-OH
# notes: also called P5 Met mutant; source: synthetic peptide, bought: GenScript
# Assays:
# Conditions in all cases: both partners purified
# [1] = biological target: B6; test: fluorescence polarisation; competition; 100 μM unlabeled peptide, 1.58 μM CHIP, 20 nM Hsp72 tracer; 50 mM Hepes pH 7.4, 50 mM KCl, 0.01% Triton X-100; 30 min at room temperature
# [2] = biological target: T1, DnaJB4 (human, UniProt Q9UDY4 1-337); test: fluorescence polarisation; saturation binding; 20 nM fluorescent Hsp72 tracer, J-domain protein titrated in 2x dilutions (110-0.013 μM told for DnaJB4); 50 mM Tris, 15 mM NaCl, 1 mM DTT, 0.01% Triton X-100, pH 8.0; 30 min at room temperature
# T1 construct: DnaJB4, human, recombinant full length class B J-domain protein; the oligomeric state of DnaJB4 is not measured here; also called WT DnaJB4; class B JDP; source: E. coli BL21 (DE3) Rosetta, purified (Ni-NTA, TEV cleavage, SEC on Superdex 200); not shown: His6, N-terminal, cleaved
# [3] = biological target: T1, DnaJB4; test: fluorescence polarisation; competition; 100 μM unlabeled peptide, 5 μM DnaJB4, 20 nM Hsp72 tracer in JDP binding buffer; 30 min at room temperature; tracer displacement relative to DMSO control
# [4] = biological target: B5; test: fluorescence polarisation; saturation binding; 20 nM fluorescent Hsp72 tracer, CHIP titrated in 2x dilutions (110-0.013 μM); 25 mM Hepes, 50 mM KCl, 0.01% Triton X-100, pH 7.4; 30 min at room temperature
# T1 sequence (Q9UDY4 whole entry): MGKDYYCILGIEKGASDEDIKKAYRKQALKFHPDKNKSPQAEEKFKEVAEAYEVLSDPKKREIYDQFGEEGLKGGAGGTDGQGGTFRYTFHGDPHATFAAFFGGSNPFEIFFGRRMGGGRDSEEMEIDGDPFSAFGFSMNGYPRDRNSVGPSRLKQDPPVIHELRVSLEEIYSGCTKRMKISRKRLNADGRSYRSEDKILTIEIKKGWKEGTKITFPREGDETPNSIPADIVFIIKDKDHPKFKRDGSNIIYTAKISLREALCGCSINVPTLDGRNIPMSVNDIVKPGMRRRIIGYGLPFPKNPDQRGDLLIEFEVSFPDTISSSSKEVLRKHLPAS
binder,measurement,setting,value
B1,binding result,[1],binds
same,Kd,[2],1840 nM and 1650 nM
B2,binding result,[3],binds
B3,binding result,[3],binds
B4,binding result,[3],binds
B5,binding result,[2],binds
B6,fold weakening of the affinity against the WT tracer,[4],5 fold
B7,binding result,[1],binds
B8,binding result,[3],binds
